Data set [1] addresses T1, PfPDC/POR (Pyrococcus furiosus, UniProt Q51804+Q51805).
T1 construct: gene porA; native, purified anaerobically from P. furiosus cells; no tag; dimer of heterotetramers, about 260 kDa; with Pyruvate synthase subunit PorD; Pyruvate/ketoisovalerate oxidoreductases common subunit gamma
As to the kind of experiment: POR activity, pyruvate- and CoA-dependent methyl viologen reduction. Type of data set: biochemical. Particulars: POR reaction; 80°C, pH 8.4, anaerobic; 100 μM CoASH, 5 mM pyruvate.

Data set [2] concerns the target T2, TgPDC/POR (Thermococcus guaymasensis, UniProt W8CQB2+W8CQR1).
T2 construct: gene porA; native, purified anaerobically from T. guaymasensis cells; no tag; dimer of heterotetramers, 258 kDa by gel filtration; with Pyruvate synthase subunit PorD; Pyruvate/ketoisovalerate oxidoreductases common subunit gamma
As to the kind of experiment: PDC activity with desulfo-CoA substituted for CoA. Particulars: PDC reaction; 80°C, anaerobic. Type of data set: biochemical.

Data set [3] deals with T1, PfPDC/POR. As to the kind of experiment: PDC activity with desulfo-CoA substituted for CoA. Type of data set: biochemical. Particulars: PDC reaction; 80°C, anaerobic.
Data set [4] has as its target T2, TgPDC/POR. As to the kind of experiment: POR activity. The data set is classed as biochemical. To be noted: POR reaction; concentration not given.
Data set [5] has as its target bifunctional pyruvate decarboxylase/pyruvate ferredoxin oxidoreductase from Thermococcus guaymasensis, heterotetramer of PorA, PorB, PorD and Por/VorG (Thermococcus guaymasensis (endogenous in DSM 11113)) (UniProt W8CQB2). As to the kind of experiment: SEC; native enzyme purified from T. guaymasensis (about 1 mg) on HiLoad Superdex-200 in buffer E (50 mM Tris pH 7.8, 5% glycerol, 100 mM KCl, 2 mM DTT, 2 mM SDT), 2.5 mL/min, calibrated with protein standards; SDS-PAGE of the enzyme after the column; apparent Mr 258,000. On the technique in general: SEC sorts molecules by how far they enter the pores of the column.

Substrate in data set [6]: CC(=O)C(=O)O
As to the kind of experiment: PDC activity, acetaldehyde as DNPH hydrazone by RP-HPLC. The data set is classed as biochemical, Thermococcus guaymasensis. Particulars: PDC (nonoxidative decarboxylation) reaction, 1 mM CoA, 0.1 mM TPP, Mg2+, optimal pH (9.5), 80°C, anaerobic. From the text:
PDC activity, acetaldehyde as DNPH hydrazone by RP-HPLC on TgPDC/POR

Substrate in the data set “purified protein”: CC(=O)C(=O)O
The data set is described as follows: purified protein. The data set is classed as biochemical, Thermococcus guaymasensis. To be noted: POR (oxidative decarboxylation) reaction, 0.1 mM CoA, 1 mM MV, 0.4 mM TPP, Mg2+, pH 8.4 (optimal pH), 80°C, anaerobic.

Data set [7] concerns the molecule itself. The data set is described as follows: SEC; native enzyme from P. furiosus; HiLoad Superdex-200 in buffer E as a step of the purification; native molecular weight of approximately 260 kDa told in the discussion, how it was estimated is not told for this enzyme.

T2 sequence (W8CR61 1-105 partner, one chain of several): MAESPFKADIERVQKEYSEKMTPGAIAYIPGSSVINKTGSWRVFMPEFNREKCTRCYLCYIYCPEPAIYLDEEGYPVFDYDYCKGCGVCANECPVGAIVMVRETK
T2 sequence (W8CQB1 1-185 partner, one chain of several): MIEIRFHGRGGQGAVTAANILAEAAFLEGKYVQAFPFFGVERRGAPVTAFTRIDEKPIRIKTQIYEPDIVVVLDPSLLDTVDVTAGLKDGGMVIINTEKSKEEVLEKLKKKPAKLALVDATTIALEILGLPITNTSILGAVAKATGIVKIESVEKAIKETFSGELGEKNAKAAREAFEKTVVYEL

For `CC(C)(COP(=O)(O)OP(=O)(O)OC[C@H]1O[C@@H](n2cnc3c(N)ncnc32)[C@H](O)[C@@H]1OP(=O)(O)O)[C@@H](O)C(=O)NCCC(=O)NCCS` [coenzyme A], the “POR activity, pyruvate- and CoA-dependent methyl viologen reduction” value at PfPDC/POR [1] is “The pyruvate- and coenzyme A-dependent reduction of the methyl viologen was measured for POR activities”.
Take `CCNC(=O)CCNC(=O)[C@H](O)C(C)(C)COP(=O)(O)OP(=O)(O)OC[C@H]1O[C@@H](n2cnc3c(N)ncnc32)[C@H](O)[C@@H]1OP(=O)(O)O` [desulfo-CoA]: the “% of activity with CoA” value at TgPDC/POR [2] is ~ 75%; at PfPDC/POR [3] it was ~ 80%. Besides, the completely inhibitory result on TgPDC/POR [4] is listed as “desulfo-CoA, an analogue of CoA, was completely inhibitory for the oxidation (POR) reaction”.
With “bifunctional pyruvate decarboxylase/pyruvate ferredoxin oxidoreductase from Thermococcus guaymasensis, heterotetramer of PorA, PorB, PorD and Por/VorG (from UniProt W8CQB2 1-331; W8CR61 1-105) (complex)”, the stoichiometry N in data set [5] came to 2.

B1: TgPDC/POR (Thermococcus guaymasensis) (protein)
chain 1: MPIRTVMKANEAAAWAAKLAKPKVIAAFPITPSTLVPEKISEFVANGELDAEFIKVESEHSAISACVGASAAGVRTFTATASQGLALMHEVLFIAAGMRLPIVMAIGNRSLSAPINIWNDWQDSISERDTGWLQFYAENNQEALDLILIAYKVAEDERVLLPAMVGFDAFILTHTVEPVEIPDQELVDEFLGEYEPKHAYLASARPLTQGTLAFPAHYMEARYTVWQANENAKKVIDEVFAEFEKRFGRKYQKVEEYRTDDAEIIFVTMGSLAGTVKEYVDHLREKGIKAGAAKLTVYRPFPIEEVRELAKKAKVLALLEKNVTFSVGGALFQDFSRALINQEEKPKIVDFILGLGGRDVTFKDLDEALAIAQKALNGEKVDEVNWIGLRKEIL
chain 2: MAVRKPPITTREYWAPGHAACAGCGCAIALKLATKAFSEAMEEKYGDPNAFAIAQATGCMEVVSAVFPYTAWKVPWVHVAFENAAAAASGVEAAWKKLGRKGKILAIGGDGGTADIGMQALSGMLERRHNVVYLMYDNEAYMNTGIQRSSSTPYGAWTTTSPPGKYSIGEDKPKKWVALIAAAHQVPYVATASIGNPFDFVRKMKKAAKVDGPAFVQVHCTCPTGWKSPLEKGVEIARLAIETGVWPLFEIENGDFHNIKIQPPGGGAKVTREGGRIVAIEFKKPIEEYLKLQGRFKHLFKQPEAIDVMREQIKAMWKVLGVDVTLPKPEE
notes: native, purified anaerobically from T. guaymasensis cells; no tag; dimer of heterotetramers, 258 kDa by gel filtration; with Pyruvate synthase subunit PorD; Pyruvate/ketoisovalerate oxidoreductases common subunit gamma
Take B1: in data set [6], the Michaelis-Menten constant (Km) was found to be 250 ± 50 µM and the maximum rate (Vmax) came to 3.8 µmol/min/mg. Also, in “purified protein”, the Michaelis constant (Km) amounted to 530 ± 30 µM and the maximal velocity (Vmax) came to 18 µmol/min/mg.

B2: bifunctional pyruvate decarboxylase/pyruvate ferredoxin oxidoreductase from Pyrococcus furiosus, heterotetramer (complex)
chain 1: MPIRKVMKANEAAAWAAKLAKPKVIAAFPITPSTLIPEKISEFVANGELDAEFIKVESEHSAISACVGAAAAGVRTFTATASQGLALMHEILFIAAGMRLPIVMAIGNRALSAPINIWNDWQDTISQRDTGWMQFYAENNQEALDLILIAYKVAEDERVLLPAMVGFDAFILTHTVEPVEIPDQEVVDEFLGEYEPKHAYIDPARPITQGSLAFPAHYMESRYTVWEAMERAKKVIDEAFAEFEKKFGRKYQKIEEYKTEDADIIFVTMGSLAGTLKEWIDKKREEGYKVGAAKITVYRPFPVEEIRELAKKAKVLAFLEKNITIGLYGAVFTDASAALINESEKPLMVDFIVGLGGRDVTFNQLDEALEIAEKALKEGKVENPINWIGLRWELVK
chain 2: MAVRKPPITTREYWAPGHAACAGCGCATALRLATKALSEAMEEKYGDPNAFAIAHATGCMEVVSAVFPYTAWKAPWIHVAFENAAAVASGIEAAWKKLGRKGKILAIGGDGGTADIGLQALSGMLERWHNVLYLMYDNEAYMNTGIQRSSSTPYGAWTTTSPPGKYSVGEDKPKKWVALIAAAHQIPYVATASIGNPLDFVRKIKKAGKIDGPAFVQVLCTCPTGWRSPLEKGVEIARLAIETGIWPLFEIENGDIWNIKIQPPGGGAKVYKEGNRVVRIEFKKPIEEYLKLQGRFKHLFKRPEAIEELRNQVKAMWKVLGVEAILPRPEE
chain 3: MIEVRFHGRGGQGAVTAANILAEAAFLEGKYVQAFPFFGVERRGAPVTAFTRIDNKPIRIKTQIYEPDVVVVLDPSLLDAVDVTAGLKDEGIVIVNTEKSKEEVLEKLKKKPKKLAIVDATTIALEILGLPITNTAILGAVAKATGLVKIESIEEAIKDTFSGELGEKNARAAREAYEKTEVFEL
chain 4: MAESPFKADIERAQKELSEKMTPGAIVYIPGSSVINKTGSWRVFKPEFNRDKCVRCYLCYIYCPEPAIYLDEEGYPVFDYDYCKGCGICANECPTKAIEMVREVK
notes: alpha subunit (PorA) of pyruvate ferredoxin oxidoreductase, Pyrococcus furiosus; beta subunit (PorB) of pyruvate ferredoxin oxidoreductase, Pyrococcus furiosus; gamma subunit (Por/VorG) of pyruvate ferredoxin oxidoreductase, Pyrococcus furiosus; delta subunit (PorD) of pyruvate ferredoxin oxidoreductase, Pyrococcus furiosus; One heterotetramer (one copy of each subunit); the native enzyme is …
Take B2: the “stoichiometry N” value in data set [7] is 2.

Usually stoichiometry N stands for the number of molecules, sites or subunits per partner or assembly. For orientation: Km means the substrate concentration at which the rate is half of its maximum. As a reminder, the Vmax is the top rate of the reaction or transport when substrate is in excess.

The record behind these values is article PMC4058850, “The Bifunctional Pyruvate Decarboxylase/Pyruvate Ferredoxin Oxidoreductase from Thermococcus guaymasensis” (Archaea, 2014).
